Laboratory results from patent US6706266, “Oncostatin M antagonists” (SmithKline Beecham Corporation).

T1: oncostatin M (hOSM, mature) (Homo sapiens, UniProt P13725 SEQ:26-221)
T1 sequence: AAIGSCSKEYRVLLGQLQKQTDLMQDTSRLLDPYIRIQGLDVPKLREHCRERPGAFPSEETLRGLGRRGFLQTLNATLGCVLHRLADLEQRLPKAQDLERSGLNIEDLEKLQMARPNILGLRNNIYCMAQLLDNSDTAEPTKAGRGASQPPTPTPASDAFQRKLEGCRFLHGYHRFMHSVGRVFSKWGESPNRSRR

T2: oncostatin M (murine OSM) (Mus musculus, UniProt P53347 P53347:23-206)
T2 sequence: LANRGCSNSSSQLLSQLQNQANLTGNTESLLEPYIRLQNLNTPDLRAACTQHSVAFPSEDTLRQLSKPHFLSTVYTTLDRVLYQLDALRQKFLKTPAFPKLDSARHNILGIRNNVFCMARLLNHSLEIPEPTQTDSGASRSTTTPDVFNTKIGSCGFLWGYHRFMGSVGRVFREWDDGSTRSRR

B1: ADR147 (aptamer raised to CD95 ligand) (ssRNA)
RNA: GGGAGGACGAUGCGGUUAUACUAAGCUGCGGUUAGCGACAGCCCUCCCUAGCGCCUCAGACGACUCGCCCGA
modifications: 2'-F pyrimidines
B2: ADR58 (ssRNA)
RNA: GGGAGGACGAUGCGGAUCGCCCUGAACCGGCCCAGCAGACUGCUGACGGCACGAUCAGACGACUCGCCCGA
modifications: 2'-F C and U (2'-F pyrimidines), 2'-OH purines

What was measured:
[1] = target: T1, oncostatin M (hOSM, mature); test: competition; little activity in OSM/gp130 ELISA; conditions: tags: expressed in E. coli as GST fusion, GST removed by thrombin cleavage
Description: (§1) Effect of Point Mutations on the Ability of OSM-GST to Compete with Wild Type OSM Binding to gp130-Fc in an ELISA Nunc Immunoplates (F6 Maxisorp, Life Technologies) were coated overnight (4° C.) with wild type OSM (produced according to Example 7a); 50 µl/well, 1 µg/ml in carbonate/bicarbonate buffer pH 9.4). Plates were washed (×6 in PBS 0.05% tween 20, using Skatron Plate washer), tapped dry and blocked to reduce non-specific binding (200 µl/well, 1% BSA/PBS). Following 1 h incubation (room temperature on a shaking platform) the plates were tapped dry and wild type (wt) or mutant OSM-GST from Example 9b added (50 µl/well, 20–0.002 µg/ml, titrated in 1%BSA/PBS). As a positive control polyclonal anti-human OSM antibody (R&D Systems) was also tested (20–0.02 µg/ml). […] Following a 5 h incubation (room temperature on a shaking platform) the plates were washed (×6) and developed using ELISA Amplification System (Life Technologies) as manufacturer's instructions and the OD measured at 490 nm. On each plate the total binding was determined by gp130-Fc/conjugate and OSM in the presence of 1%BSA/PBS, and non-specific binding by gp130-Fc/conjugate in absence of OSM, or conjugate binding to OSM in absence of gp130-Fc. […]

[2] = target: T2, oncostatin M (murine OSM); test: filter; no binding at any concentration tested; conditions: tags: R&D Systems
[3] = target: T1, oncostatin M (hOSM, mature); test: filter; SCHMK buffer (1 mM MgCl2, 1 mM CaCl2), 37 C; conditions: tags: expressed in E. coli as GST fusion, GST removed by thrombin cleavage
Description: Binding assays were carried out as described (Fitzwater and Polisky supra). […] Transcribed RNA was dephosphorylated using bacterial alkaline phosphatase for 30 min at 65° C. Dephosphorylated RNA was then 5' labelled using polynucleotide kinase and γ-^33P ATP. Radiolabelled RNA was gel purified, and incubated at 37° C. for 30 min with a serial dilution of hOSM in SCHMK buffer (45 μl OSM plus 5 μl radiolabelled RNA at 1000 cpm/μl). […] The filters were washed immediately with 5 ml SCHMK buffer, dried and counted in a liquid scintillation counter. […] The data sets were fitted by the non-linear least squares method using an EXEL software package.

TNF alpha (biotinylated) = TNF alpha (biotinylated) (UniProt P01375 P01375:77-233); test: competition; no inhibition of TNFalpha binding to TNFR1; conditions: tags: biotin, NEN; chain copies: 3
Chain of TNF alpha (biotinylated) (P01375 77-233, one chain of several): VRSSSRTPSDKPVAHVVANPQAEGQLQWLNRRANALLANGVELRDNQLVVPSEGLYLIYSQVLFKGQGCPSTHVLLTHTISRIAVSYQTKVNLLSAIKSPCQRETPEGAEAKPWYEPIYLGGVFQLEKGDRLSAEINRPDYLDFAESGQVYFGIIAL
Description: Nunc Immunoplates (F6 Maxisorp, Life Technologies) were coated overnight (4° C.) with sheep anti-human IgG (Serolabs) (50 µl/well, 1 µg/ml in PBS). Plates were washed (×6 in PBS 0.05% tween 20, using Skatron Plate washer), tapped dry and blocked to reduce non-specific binding (200µl/well, 1% BSA/PBS). […] As a positive control an anti-TNFR1 monoclonal antibody (R&D Systems) was included. […] Following a 2 h incubation (room temperature on a shaking platform) the plates were washed (×6) and developed using ELISA Amplification System (Life Technologies) according to the manufacturer's instructions and the OD measured at 490 nm.

[4] = target: T1, oncostatin M (hOSM, mature); test: competition; blocks OSM binding to gp130-Fc, ELISA; conditions: tags: expressed in E. coli as GST fusion, GST removed by thrombin cleavage
Description: as §1

Binder | binding result [1] | binding result [2] | Kd [3] | binding result (TNF alpha (biotinylated)) | IC50 [4]
B1 | no binding | – | – | – | –
B2 | – | no binding | 7 nM | no binding | ~30 pmol/well
